Assay results reported in paper PMC6690965, “OsCAldOMT1 is a bifunctional O-methyltransferase involved in the biosynthesis of tricin-lignins in rice cell walls” (Scientific Reports, 2019).

Legend:
[1] = substrate: COc1cc(/C=C/C=O)cc(O)c1O; assay: HPLC/LC-MS O-methylation assay, Michaelis-Menten fit; type: biochemical, Oryza sativa; conditions: 50 mM Tris-HCl pH 7.5, co-substrate S-adenosyl-L-methionine, 20 min, 10-200 µM substrate
[2] = substrate: COc1cc(-c2cc(=O)c3c(O)cc(O)cc3o2)cc(O)c1O; assay: as above; type: biochemical, Oryza sativa; conditions: 50 mM Tris-HCl pH 7.5, co-substrate S-adenosyl-L-methionine, 20 min, 10-200 µM substrate, 5'-O-methylation giving tricin

B1: OsCAldOMT1 (Oryza sativa Japonica Group) (protein)
chain: MGSTAADMAAAADEEACMYALQLASSSILPMTLKNAIELGLLETLQSAAVAGGGGKAALLTPAEVADKLPSKANPAAADMVDRMLRLLASYNVVRCEMEEGADGKLSRRYAAAPVCKWLTPNEDGVSMAALALMNQDKVLMESWYYLKDAVLDGGIPFNKAYGMTAFEYHGTDARFNRVFNEGMKNHSVIITKKLLDLYTGFDAASTVVDVGGGVGATVAAVVSRHPHIRGINYDLPHVISEAPPFPGVEHVGGDMFASVPRGGDAILMKWILHDWSDEHCARLLKNCYDALPEHGKVVVVECVLPESSDATAREQGVFHVDMIMLAHNPGGKERYEREFRELARAAGFTGFKATYIYANAWAIEFTK
Work on B1 yielded a Km [1] of 132.8 ± 21.3 µM, a kcat [1] of 373.0 ± 37.9 s⁻¹ and a Km [2] of 68.2 ± 14.5 µM. It also gave a kcat [2] of 158.5 ± 16.6 s⁻¹.
